Assay results taken from the RNAGym collection of RNA variant scans (doi:10.1073/pnas.2313332121).
Fewer inactive variants are shown than the library holds.

B1: TPR 5TU (parent)
chain: GGAUCUUCUCGAUCUAACAAAAAAGACAAAUCUGCCACAAAGCUUGAGAGCAUCUUCGGAUGCAGAGGCGGCAGCCUUCGGUGGCGCGAUAGCGCCAACGUUCUCAACUAUGACACGCAAAACGCGUGCUCCGUUGAAUGGAGUUUAUCAUG

Variants of: B1
Assay: polymerase ribozyme fitness, log enrichment relative to wild type (log ratio); higher = more active; in vitro selection for triplet polymerase activity
How it was run: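 Frozen incubation at −7 °C formed the core of a single, triplicate in vitro selection round applied to PCR-built, transcribed mutant libraries of each subunit of a heterodimeric triplet polymerase ribozyme. Extended constructs were gel-excised, captured with streptavidin beads and amplified by RT-PCR, and input and output libraries were Illumina-sequenced with a filter of ≥10 input reads and ≥1 read per output. Fitness is the logarithm of genotype enrichment relative to wild-type enrichment, with inverse-variance-weighted replicate averaging, and the logarithm is base 2.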

Variant | polymerase ribozyme fitness (log ratio)
A16C A19U C85U G117U A150U | 0.0374
A16C C38U G80U C96G A142C U148G | ≤ -4.2
U15A G58A G86A U144G | 0.552
A17C C85U | 0.349
A16C U82A C95G G141A | -3.41
U15C U53A A73G C76U G92C | -1.85
C14U U56A G74A C85A C87A C125U G143C A150U G152U | ≤ -4.2
A16G A91U C105G A115G | ≤ -4.2
U15C A21U | 1.65
U15G C79G | -3.38
A16U U31G A37G G83A C96A A106C | ≤ -4.2
A17C A24U C114A | -3.86
A17C A29U C72U G81C G140U | ≤ -4.2
A16C C27G U53A C54A G74A G94A | ≤ -4.2
A16G C18A A26G C38U G42C G81A C87A C116A | ≤ -4.2
A16U C54A U101G A119U C149U | -4.08
A17C U31A G92U A98U G141A | 0.253
U15G U53A A91G | -2.83
A17G C129G | -3.57
C14U U55A | -1.33
U15G C129A | -2.55

Variant | polymerase ribozyme fitness (log ratio)
A16U G46C G50C G67A G74C C118U U130A | -4.05
A17G A20U A37G U53G A98U A106U G126C G136C G143U | ≤ -4.2
A16G A30U U44A G81A C95U C125G | ≤ -4.2
A16C A24G A47C C85G A97C A120G | ≤ -4.2
A16U A22C C51U U55A G74A C99G C114A C131U | ≤ -4.2
U15A A29U G59U C95U A120G U127G U135C G143A | ≤ -4.2
A17G A37U C87U C99A C123U | -3.98
A17C G34A C96G A121G A122C U134C | -1.47
A16C A89G | -2.25
A17G C51U A106G A120C A122U | -1.36
C14U U55A G126A C132U | -1.73
U15G G74A C96U C125A G141U | ≤ -4.2
A16G G48A C57A C76U A89C C95A C116G C131A G136C | ≤ -4.2
A16U G84A | -2.41
U15G A30G C54A | ≤ -4.2
U15G A40C G42A A49G G62C C93A | ≤ -4.2
A16U G65A C69A A91U C93A G100C U101G C123G | ≤ -4.2
U15G A49G C87U G136A | -1.17
A17G C32G C76U | ≤ -4.2
A17C G50U U56A G58C G84U | -1.22
A17C A40U U55A A60U A66C C85G C116G G141C A147U | ≤ -4.2

Variant | polymerase ribozyme fitness (log ratio)
A17G C108U | -3.09
A16G A98U | -1.65
A17G A21G U90C A147C A150U | ≤ -4.2
U15G U53A | -0.774
U15G C36G U111G G124A G141C A150U | ≤ -4.2
A17G A26C C32U G59A C75U | ≤ -4.2
A16G C43U C51U G80C G117A A142C | ≤ -4.2
A17C C95U | 0.45
A17G C79A G80C U109C | ≤ -4.2
A16G A29G A47U C57U A73C C93G A98G A115G | ≤ -4.2
A17C C95U C96U G136A U144C A147U | -0.941
C14U U53A U56A | -2.46
A16G U56A | -1.7
A16G C38U U82A C96G | -1
U15A A21G A49G C96G | -1.26
A17C C18G A40U G86U | -1.43
U15C A21G A24U U53A | 0.983
A17C C131G | -3.09
A17C A23U A40C G86U | ≤ -4.2
A17G A21G A52U U56A A91G | -4
A16U C87U C116U | -2.25

Variant | polymerase ribozyme fitness (log ratio)
C14U G88A | -4.2
A16G A28C C36A U44A G48C A49C C76G U77C A91U C103G | ≤ -4.2
U15C G84A A106G G124A | -0.149
A16U A37C C63U C95U A119U A122U | -3.13
A16G C57G C76A | -1.31
A16G C27G C54G G83A G86U A97U C105U U146A | ≤ -4.2
U15A G59A A60U C79U C87A | ≤ -4.2
A16C U31A U104G A142C | -2.77
A16C A21U C69U G71A | -1.79
C14U G92C G136A | -2.51
A16U C38U C51U A73G G92U G94A A98C U151A | -3.96
A16C C96A U109C U148A | ≤ -4.2
A16U U61A C93U G140A G143U U148G | ≤ -4.2
C14U G94A G136U | -3.85
A16U A21G C32U G50C U151G | ≤ -4.2
U15G A16C A21U A26C C103U | -3.98
U15G C27A | -4.13
U15C C35U U56A A89C | 0.662
U15G A23G G50C C51G C63G C96G | ≤ -4.2
U15G A21C G83U A89G C96G U127A | -4.13
A17C U55G C57A G59C C85A A115G A119U | -2.46
